Consider eleven molecules from publication PMC6754446, “Regulation of the endosomal SNX27-retromer by OTULIN” (Nature Communications, 2019).

No end group written: not given here.

Settings in all cases: both partners purified
Assay [1] addresses T1, OTULINcat (aa 80-352) (human, UniProt Q96BN8 80-352). Put plainly: ITC; SHANK1-3 PDZ in the syringe, OTULINcat in the cell; 30 °C; 20 mM HEPES pH 7.4, 200 mM NaCl, 2 mM TCEP; single-site binding model. (In general: Isothermal titration calorimetry measures the heat released or taken up as one component is titrated into another.)
Assay [2] concerns the target T1, OTULINcat (aa 80-352). Put plainly: ITC; PDZ variant (150-450 µM) in the syringe, OTULINcat variant (20-30 µM) in the cell; 25 °C; 20 mM HEPES pH 7.4, 200 mM NaCl, 2 mM TCEP; single-site binding model.
The next assay addresses SNX27PDZ (aa 40–135) (human, UniProt Q96L92 40-135). Put plainly: ITC; 25 °C, 20 mM HEPES pH 7.4, 200 mM NaCl, 2 mM TCEP; 20–30 µM OTULINcat variant in the cell, 150–450 µM PDZ variant in the syringe; single-site model.
Assay [3] has as its target SNX27 PDZ domain (aa 40-135) (human, UniProt Q96L92 40-135). Put plainly: ITC; SNX27PDZ in the cell; OTULINcat, OTULIN PDZbm peptide or VPS26A in the syringe; 25 °C; 20 mM HEPES pH 7.4, 200 mM NaCl, 2 mM TCEP; single-site binding model.
The next assay concerns the target T2, OTULINcat (aa 80–352) (human, UniProt Q96BN8 80-352).
T2 construct: OTULIN, human, aa 80–352; His6-3C construct in pOPIN-B; tag cleaved with 3C protease; source: E. coli Rosetta2 (DE3) pLacI, purified (HisTrap, anion exchange, SEC)
Put plainly: ITC; 25 °C, 20 mM HEPES pH 7.4, 200 mM NaCl, 2 mM TCEP; 20–30 µM OTULINcat variant in the cell, 150–450 µM PDZ variant in the syringe; single-site model.

T1 sequence (Q96BN8 80-352): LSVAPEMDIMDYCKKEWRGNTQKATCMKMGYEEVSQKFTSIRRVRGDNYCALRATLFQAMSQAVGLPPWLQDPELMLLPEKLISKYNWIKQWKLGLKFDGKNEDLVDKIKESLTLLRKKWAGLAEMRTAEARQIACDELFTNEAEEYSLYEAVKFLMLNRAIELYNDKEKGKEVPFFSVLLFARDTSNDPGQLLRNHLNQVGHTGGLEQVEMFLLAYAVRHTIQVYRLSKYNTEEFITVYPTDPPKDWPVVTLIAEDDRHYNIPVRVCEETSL
T2 sequence (Q96BN8 80-352): as above

B1: SHANK2 PDZ domain (239-347) (domain or fragment)
chain: SDCIIEEKTVVLQKKDNEGFGFVLRGAKADTPIEEFTPTPAFPALQYLESVDEGGVAWQAGLRTGDFLIEVNNENVVKVGHRQVVNMIRQGGNHLVLKVVTVTRNLDPD
modifications: Printed 239-347 follows the older 1470-aa Q9UPX8 numbering; offset +379 to the current 1849-aa entry, so that the start falls on SDCIIEEKTV. The His6-SUMO tag was cleaved off.
Turning to B1, in the assay with OTULINcat (aa 80-352) [1], the Kd was 23.9 µM and the “stoichiometry N” value came out at 0.99.

B2: Syntenin1 PDZ1 (108-196) (domain or fragment, UniProt Q9JI92 108-196, looked up)
chain: AEIKQGIREVILCKDQDGKIGLRLKSVDNGIFVQLVQANSPASLVGLRFGDQVLQINGENCAGWSSDKAHKVLKQAFGEKITMTIRDRP
notes: Syntenin-1, first PDZ domain, residues 108-196; The printed DNA (267 nt) fits 89 residues; source: E. coli, purified analogous to SNX27PDZ (pOPIN-S vector)
As to B2, the “stoichiometry N” value with OTULINcat (aa 80-352) [2] was 0.38.

B3: OTULIN C-terminal PDZbm peptide (aa 344–352) (peptide, UniProt Q96BN8 344-352, looked up)
peptide: VRVCEETSL
notes: OTULIN, human, aa 344–352; also called OTULIN PDZbm peptide
In the assay with SNX27PDZ (aa 40–135), B3 yielded a Kd of 1.1 µM.

B4: OTULIN C-terminal PDZbm peptide (aa 344-352) (peptide)
peptide: Ac-VRVCEETSL
notes: OTULIN, human, C-terminal PDZbm peptide, aa 344-352; also called OTULIN PDZbm peptide
As for B4, the “stoichiometry N” value in assay [3] worked out at 1.07.

B5: PSD95 PDZ2 (155-249) (domain or fragment, UniProt P78352 155-249, looked up)
chain: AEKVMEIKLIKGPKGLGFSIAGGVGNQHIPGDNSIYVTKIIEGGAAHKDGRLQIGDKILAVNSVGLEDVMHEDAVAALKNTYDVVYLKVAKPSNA
notes: PSD95, second PDZ domain, residues 155-249; The printed DNA (285 nt) fits 95 residues; source: E. coli, purified analogous to SNX27PDZ (pOPIN-S vector)
Take B5: in the assay with OTULINcat (aa 80-352) [2], the Kd is 98.9 µM and the “stoichiometry N” value was 0.91.

B6: LNX2 PDZ3 (465-560) (domain or fragment, UniProt Q8N448 465-560, looked up)
chain: QEKHITVKKEPHESLGMTVAGGRGSKSGELPIFVTSVPPHGCLARDGRIKRGDVLLNINGIDLTNLSHSEAVAMLKASAASPAVALKALEVQIVEE
notes: LNX2, third PDZ domain, residues 465-560; The printed DNA (288 nt) fits 96 residues; source: E. coli, purified analogous to SNX27PDZ (pOPIN-S vector)
B6: in the assay with OTULINcat (aa 80-352) [2], the equilibrium dissociation constant (Kd) is 57.1 µM and the “stoichiometry N” value is 0.87.

B7: Syntenin1 PDZ1 (domain or fragment, UniProt O00560 114-193, looked up)
chain: EVILCKDQDGKIGLRLKSIDNGIFVQLVQANSPASLVGLRFGDQVLQINGENCAGWSSDKAHKVLKQAFGEKITMTIRDR
notes: Syntenin1, PDZ1; source: expressed and purified analogous to SNX27PDZ (E. coli Rosetta2 (DE3) pLacI); His6-SUMO cleaved with SUMO protease
Consider B7, for which binding with OTULINcat (aa 80–352) was characterised by a dissociation constant (Kd) of 1710 µM.

B8: NHERF1 PDZ2 (150-235) (domain or fragment, UniProt O14745 150-235, looked up)
chain: LRPRLCTMKKGPSGYGFNLHSDKSKPGQFIRSVDPDSPAEASGLRAQDRIVEVNGVCMEGKQHGDVVSAIRAGGDETKLLVVDRET
notes: The printed DNA (258 nt) fits 86 residues; source: E. coli, purified analogous to SNX27PDZ (pOPIN-S vector)
B8: in the assay with OTULINcat (aa 80-352) [2], binding was characterised by a dissociation constant (Kd) of 35.6 µM and the “stoichiometry N” value turned out to be 1.14.

B9: SHANK3 PDZ domain (563-671) (domain or fragment)
chain: SDYVIDDKVAVLQKRDHEGFGFVLRGAKAETPIEEFTPTPAFPALQYLESVDVEGVAWRAGLRTGDFLIEVNGVNVVKVGHKQVVALIRQGGNRLVMKVVSVTRKPEED
modifications: Printed 563-671 follows the older 1731-aa SHANK3 numbering; offset +75 to the current 1806-aa entry (inferred by homology to the SHANK2 start, 8 residues before the annotated PDZ). The His6-SUMO tag …
For the molecule B9, in the assay with OTULINcat (aa 80-352) [1], binding was characterised by a dissociation constant (Kd) of 26.4 µM and the “stoichiometry N” value is 1.

B10: SHANK1 PDZ domain (654-763) (domain or fragment, UniProt Q9Y566 654-763, looked up)
chain: GSDYIIKEKTVLLQKKDSEGFGFVLRGAKAQTPIEEFTPTPAFPALQYLESVDEGGVAWRAGLRMGDFLIEVNGQNVVKVGHRQVVNMIRQGGNTLMVKVVMVTRHPDMD
notes: source: E. coli, purified analogous to SNX27PDZ (pOPIN-S vector)
Turning to B10, in the assay with OTULINcat (aa 80-352) [1], the dissociation constant Kd came out at 22.6 µM and the “stoichiometry N” value was 1.

B11: RhoGEF PDZ domain (41-123) (domain or fragment, UniProt O15085 41-123, looked up)
chain: TGLVQRCVIIQKDQHGFGFTVSGDRIVLVQSVRPGGAAMKAGVKEGDRIIKVNGTMVTNSSHLEVVKLIKSGAYVALTLLGSS
notes: RhoGEF, PDZ domain, residues 41-123; The printed DNA (249 nt) fits 83 residues; source: E. coli, purified analogous to SNX27PDZ (pOPIN-S vector)
For B11, in the assay with OTULINcat (aa 80-352) [2], the affinity, expressed as Kd, was 38.3 µM and the “stoichiometry N” value was determined as 0.96.

What is called Kd is the concentration at which binding is half-saturated. The stoichiometry N is a count of units in the complex or per binding partner.
